According to patent US20230265151A1, “GIP/GLP1 CO-AGONIST COMPOUNDS” (priority 2020, published 2023):
Numbering of substitutions follows the chain as printed.

B1: Example 224 (peptide)
peptide: YXEGTXTSDXSIXLDXKAQXEFIXXLIKGGPSSGAPPPS
modifications: Y-Aib-EGT-αMeF(2F)-TSD-4Pal-SI-αMeL-LD-Orn-K((2-[2-(2-Amino-ethoxy)-ethoxy]-acetyl)3-(γ-Glu)-CO-(CH2)12-CO2H)AQ-Aib-EFI-(D-Glu)-αMeY-LIK((2-[2-(2-Amino-ethoxy)-ethoxy]-acetyl)3-(γ-Glu)-CO-(CH2)12-CO2H)GGPSSGAPPPS-NH2
B2: Example 256 (peptide)
peptide: B1 peptide
modifications: Y-Aib-EGT-αMeF(2F)-TSD-2Nal-SI-αMeL-LD-Orn-K((2-[2-(2-Amino-ethoxy)-ethoxy]-acetyl)2-CO-(CH2)12-CO2H)AQ-Aib-EFI-(D-Glu)-αMeY-LIK((2-[2-(2-Amino-ethoxy)-ethoxy]-acetyl)2-CO-(CH2)12-CO2H)GGPSSGAPPPS-NH2 …
B3: Example 270 (peptide)
peptide: B1 peptide with K17I, X24K
modifications: Y-Aib-EGT-αMeF(2F)-TSD-hTyr-SI-αMeL-LD-Orn-IAQ-Aib-EFIK((2-[2-(2-Amino-ethoxy)-ethoxy]-acetyl)2-(γ-Glu)-CO-(CH2)12-CO2H)-αMeY-LIK((2-[2-(2-Amino-ethoxy)-ethoxy]-acetyl)2-(γ-Glu)-CO-(CH2)12-CO2H)GGPSSGAPPPS-NH2
B4: Example 253 (peptide)
peptide: B1 peptide with K17I, E21K
modifications: Y-Aib-EGT-αMeF(2F)-TSD-2Nal-SI-αMeL-LD-Orn-IAQ-Aib-K((2-[2-(2-Amino-ethoxy)-ethoxy]-acetyl)2-(γ-Glu)-CO-(CH2)12-CO2H)Fl-(D-Glu)-αMeY-LIK((2-[2-(2-Amino-ethoxy)-ethoxy]-acetyl)2-(γ-Glu)-CO-(CH2)12-CO2H)GGPSSGAPPPS-NH2
B5: Example 246 (peptide)
peptide: B1 peptide with S11X, K17I, X24K
modifications: Y-Aib-EGT-αMeF(2F)-TSD-4Pal-Aib-I-αMeL-LD-Orn-IAQ-Aib-EFIK((2-[2-(2-Amino-ethoxy)-ethoxy]-acetyl)2-(γ-Glu)-(10-(4-carboxyphenoxy)decanoyl))-αMeY-LIK((2-[2-(2-Amino-ethoxy)-ethoxy]-acetyl)2-(γ-Glu)-(10-(4-carboxyphenoxy)decanoyl))GGPSSGAPPPS-NH2
B6: Example 263 (peptide)
peptide: B1 peptide with K17I, E21K
modifications: Y-Aib-EGT-αMeF(2F)-TSD-OMeY-SI-αMeL-LD-Orn-IAQ-Aib-K((2-[2-(2-Amino-ethoxy)-ethoxy]-acetyl)2-(γ-Glu)-CO-(CH2)12-CO2H)FI-(D-Glu)-αMeY-LIK((2-[2-(2-Amino-ethoxy)-ethoxy]-acetyl)2-(γ-Glu)-CO-(CH2)12-CO2H)GGPSSGAPPPS-NH2
B7: Example 239 (peptide)
peptide: B1 peptide with X10Y, S11X, K17I, X24K
modifications: Y-Aib-EGT-αMeF(2F)-TSDY-Aib-I-αMeL-LD-Orn-IAQ-Aib-EFIK((2-[2-(2-Amino-ethoxy)-ethoxy]-acetyl)2-(γ-Glu)-(10-(4-carboxyphenoxy)decanoyl))-αMeY-LIK((2-[2-(2-Amino-ethoxy)-ethoxy]-acetyl)2-(γ-Glu)-(10-(4-carboxyphenoxy)decanoyl))GGPSSGAPPPS-NH2
B8: Example 266 (peptide)
peptide: B1 peptide
modifications: Y-Aib-EGT-αMeF(2F)-TSD-OMeY-SI-αMeL-LD-Orn-K((2-[2-(2-Amino-ethoxy)-ethoxy]-acetyl)2-CO-(CH2)12-CO2H)AQ-Aib-EFI-(D-Glu)-αMeY-LIK((2-[2-(2-Amino-ethoxy)-ethoxy]-acetyl)2-CO-(CH2)12-CO2H)GGPSSGAPPPS-NH2 …
B9: Example 249 (peptide)
peptide: B1 peptide with E21K, K28E
modifications: Y-Aib-EGT-αMeF(2F)-TSD-2Nal-SI-αMeL-LD-Orn-K((2-[2-(2-Amino-ethoxy)-ethoxy]-acetyl)2-(γ-Glu)-CO-(CH2)12-CO2H)AQ-Aib-K((2-[2-(2-Amino-ethoxy)-ethoxy]-acetyl)2-(γ-Glu)-CO-(CH2)12-CO2H)FI-(D-Glu)-αMeY-LIEGGPSSGAPPPS-NH2
B10: Example 262 (peptide)
peptide: B1 peptide with K17I, X24K
modifications: Y-Aib-EGT-αMeF(2F)-TSD-OMeY-SI-αMeL-LD-Orn-IAQ-Aib-EFIK((2-[2-(2-Amino-ethoxy)-ethoxy]-acetyl)2-(γ-Glu)-CO-(CH2)12-CO2H)-αMeY-LIK((2-[2-(2-Amino-ethoxy)-ethoxy]-acetyl)2-(γ-Glu)-CO-(CH2)12-CO2H)GGPSSGAPPPS-NH2
B11: Example 233 (peptide)
peptide: B1 peptide with X10Y, S11X, K17I, X24K
modifications: Y-Aib-EGT-αMeF(2F)-TSDY-Aib-I-αMeL-LD-Orn-IAQ-Aib-EFIK((2-[2-(2-Amino-ethoxy)-ethoxy]-acetyl)2-(γ-Glu)-CO-(CH2)12-CO2H)-αMeY-LIK((2-[2-(2-Amino-ethoxy)-ethoxy]-acetyl)2-(γ-Glu)-CO-(CH2)12-CO2H)GGPSSGAPPPS-NH2
B12: Example 226 (peptide)
peptide: B1 peptide with K17I, X24K
modifications: Y-Aib-EGT-αMeF(2F)-TSD-4Pal-SI-αMeL-LD-Orn-IAQ-Aib-EFIK((2-[2-(2-Amino-ethoxy)-ethoxy]-acetyl)3-(γ-Glu)-CO-(CH2)12-CO2H)-αMeY-LIK((2-[2-(2-Amino-ethoxy)-ethoxy]-acetyl)3-(γ-Glu)-CO-(CH2)12-CO2H)GGPSSGAPPPS-NH2
B13: Example 250 (peptide)
peptide: B1 peptide
modifications: Y-Aib-EGT-αMeF(2F)-TSD-2Nal-SI-αMeL-LD-Orn-K((2-[2-(2-Amino-ethoxy)-ethoxy]-acetyl)2-(γ-Glu)-CO-(CH2)12-CO2H)AQ-Aib-EFI-(D-Glu)-αMeY-LIK((2-[2-(2-Amino-ethoxy)-ethoxy]-acetyl)2-(γ-Glu)-CO-(CH2)12-CO2H)GGPSSGAPPPS-NH2
B14: Example 265 (peptide)
peptide: B1 peptide with E21K, K28E
modifications: Y-Aib-EGT-αMeF(2F)-TSD-OMeY-SI-αMeL-LD-Orn-K((2-[2-(2-Amino-ethoxy)-ethoxy]-acetyl)2-CO-(CH2)12-CO2H)AQ-Aib-K((2-[2-(2-Amino-ethoxy)-ethoxy]-acetyl)2-CO-(CH2)12-CO2H)FI-(D-Glu)-αMeY-LIEGGPSSGAPPPS-NH2 …
B15: Example 255 (peptide)
peptide: B1 peptide with E21K, K28E
modifications: Y-Aib-EGT-αMeF(2F)-TSD-2Nal-SI-αMeL-LD-Orn-K((2-[2-(2-Amino-ethoxy)-ethoxy]-acetyl)2-CO-(CH2)12-CO2H)AQ-Aib-K((2-[2-(2-Amino-ethoxy)-ethoxy]-acetyl)2-CO-(CH2)12-CO2H)FI-(D-Glu)-αMeY-LIEGGPSSGAPPPS-NH2 …

The binders below were run against T1, human GIP receptor (human, UniProt P48546 22-466) (assay: cell-based or functional assay).
T1 sequence (looked up): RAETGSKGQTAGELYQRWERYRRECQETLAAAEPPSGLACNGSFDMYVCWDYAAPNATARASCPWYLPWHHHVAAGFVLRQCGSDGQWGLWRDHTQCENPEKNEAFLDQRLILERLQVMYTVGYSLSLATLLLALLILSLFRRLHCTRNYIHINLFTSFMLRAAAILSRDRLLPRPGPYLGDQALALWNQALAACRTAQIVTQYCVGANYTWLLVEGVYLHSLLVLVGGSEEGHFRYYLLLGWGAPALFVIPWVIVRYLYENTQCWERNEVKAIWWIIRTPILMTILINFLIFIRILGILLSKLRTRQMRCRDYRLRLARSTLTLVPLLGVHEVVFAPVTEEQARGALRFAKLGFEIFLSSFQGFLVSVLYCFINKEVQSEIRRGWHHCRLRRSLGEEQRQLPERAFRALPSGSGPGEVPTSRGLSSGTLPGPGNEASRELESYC

Row | Binder | cAMP EC50 (1.0% HSA) [nM] | cAMP Emax (1.0% HSA) [%]
1 | B1 | 2.92 | 
2 | B2 | 1.5 | 75.3
3 | B3 | 3.8 | 80.9
4 | B4 | 21.7 | 
5 | B5 | 1.63 | 
6 | B6 | 5.91 | 
7 | B7 | 5.46 | 
8 | B8 | 0.575 | 
9 | B9 | 5.88 | 
10 | B10 | 8.15 | 79.7
11 | B11 | 6.08 | 91.4
12 | B12 | 4.86 | 
13 | B13 | 38.8 | 
14 | B14 | 0.775 | 
15 | B15 | 2.27 | 

These binders were tested against human glucagon receptor (human, UniProt P47871 26-477) (assay: cell-based or functional assay).

Row | Binder | cAMP EC50 (1.0% HSA) [nM]
16 | B1 | > 9950
17 | B2 | > 9950
18 | B3 | > 9950
19 | B4 | > 9950
20 | B5 | > 9950
21 | B6 | > 9950
22 | B7 | > 9950
23 | B8 | > 9950
24 | B9 | > 9950
25 | B10 | > 9950
26 | B11 | > 9950
27 | B12 | > 9950
28 | B13 | > 9950
29 | B14 | > 9950
30 | B15 | > 9950

These binders were tested against human GLP-1 receptor (human, UniProt P43220 24-463) (assay: cell-based or functional assay).

Row | Binder | cAMP EC50 (1.0% HSA) [nM]
31 | B1 | 71
32 | B2 | 12.6
33 | B3 | 32.6
34 | B4 | 192
35 | B5 | 22.9
36 | B6 | 56.7
37 | B7 | 25.2
38 | B8 | 5.83
39 | B9 | 51.6
40 | B10 | 69.8
41 | B11 | 56.7
42 | B12 | 11.3
43 | B13 | 63
44 | B14 | 5.14
45 | B15 | 13.7
